Measurements: patent US20240016923A1 (UNIVERSITY OF MARYLAND COLLEGE PARK, published 2024)
Ends that are not written are not given here.

B3: secreted E1E2 with c-Fos/c-Jun leucine zipper scaffold (sE1E2.LZ) (other)
chain 1: YQVRNSSGLYHVTNDCPNSSIVYEAADAILHTPGCVPCVREGNASRCWVAVTPTVATRDGKLPTTQLRRHIDLLVGSATLCSALYVGDLCGSVFLVGQLFTFSPRRHWTTQDCNCSIYPGHITGHRMAWDMMMNWSPTAALVVAQLLRIPQAIMDMIAPGGRIARLEEKVKTLKAQNSELASTANMLREQVAQLKQKVMNYRRRRRR
chain 2: ETHVTGGSAGRTTAGLVGLLTPGAKQNIQLINTNGSWHINSTALNCNESLNTGWLAGLFYQHKFNSSGCPERLASCRRLTDFAQGWGPISYANGSGLDERPYCWHYPPRPCGIVPAKSVCGPVYCFTPSPVVVGTTDRSGAPTYSWGANDTDVFVLNNTRPPLGNWFGCTWMNSTGFTKVCGAPPCVIGGVGNNTLLCPTDCFRKHPEATYSRCGSGPWITPRCMVDYPYRLWHYPCTINYTIFKVRMYVGGVEHRLEAACNWTRGERCDLEDRDRSELSPLLLSTTQWQVLPCSFTTLPALSTGLIHLHQNIVDVQYLYGVGSSIASWAIPGGLTDTLQAETDQLEDKKSALQTEIANLLKEKEKLEFILAAYHHHHHH
notes: It is written here as the two chains expected after furin cleavage

How the values were obtained:
c-Fos peptide = target: T1, c-Fos peptide (human); experiment: circular dichroism spectroscopy of mixed peptides
T1 construct: Synthetic biotinylated peptide

[1] = target: T2, membrane-bound E1E2 (mbE1E2) (Hepatitis C virus, isolate H77C …, UniProt P27958 192-746); experiment: dose-dependent ELISA, antigen captured by GNA lectin
T2 construct: Extracted from Expi293 membranes with detergent and purified; a heterogeneous mix of oligomers

[2] = target: B3; experiment: as above
[3] = target: T3, CD81 large extracellular loop (CD81-LEL) (UniProt P60033 113-201); experiment: SPR (Biacore T200), antigen amine-coupled on CM5 chip, CD81-LEL injected, single cycle kinetics, 1:1 model
T3 construct: domain: large extracellular loop (LEL); also called CD81 receptor
T3 sequence (looked up): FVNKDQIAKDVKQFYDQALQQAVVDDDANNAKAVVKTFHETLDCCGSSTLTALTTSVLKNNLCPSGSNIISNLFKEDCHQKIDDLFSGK

[4] = target: T3, CD81 large extracellular loop (CD81-LEL); experiment: SPR (Biacore T200); sE1E2.LZ amine-coupled to a CM5 chip, CD81-LEL injected; 1:1 model

B1: c-Jun peptide (peptide)
peptide: RIARLEEKVKTLKAQNSELASTANMLREQVAQLKQKVMNY
modifications: also: biotinylated, position not given here
notes: Synthetic biotinylated peptide
B1: binds (c-Fos peptide).

B2: HC84.24 (antibody, V domains shown)
VH: QVQLVQSGAEVKKPGSSVKVSCKASGGTFSLNSLSWVRQAPGQGLEWMGTIIPIVGIANYAQKFQGRVTITADKSTGTAYMDLSSLSDDTAVYFCARELYSGTGFFRLEALDYWGQGTLVTVSS
VL: DIQMTQSPATLSLSPGERATLSCRASQSVSSYLAWYQQKPGQAPRLLIYDASNRATGIPARFIAGGSGTDFTLTISSLEPEDFAVYYCQQYGSPQTFGQGTKLEIKR
B2 was tested, and the Kd [1] was 0.5 nM and the Kd [2] was 1.3 nM.

In the case of B3, the Kd [3] is reported as 10.8 nM, the koff [4] is reported as 0.00067 s⁻¹ and the kon [4] is reported as 63000 M⁻¹ s⁻¹.
